From the supplement of paper PMC9732359
± gives the uncertainty stated by the source.

Assay: protein stability index of a GFP-peptide fusion (yeast GPS) (PSI 1-4); higher = more stable; sorted into four equal gates, so the index is relative within each strain
Conditions: doa10∆
Procedure, shortened: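 The protein stability index of a peptide was calculated by multiplying its read frequency in each gate by that gate's number and adding the products. The peptides were tiled 17-residue stretches of yeast proteins, fused downstream of GFP on a Cherry-expressing plasmid and carried in yeast as a pooled library. Mid-log cultures in leucine-free medium were sorted into four equal gates by GFP/Cherry ratio, and each gate's plasmids were PCR-amplified and Illumina-sequenced.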

Sequence | protein stability index
NGDNLYGNDEEVLFYED [RPN4] | 3.07 ± 0.1
NGDNSTTTNTDQNNATM [SNF12] | 2.4 ± 0.069
NGFAPISEVMEDRNQRI [FAS1] | 3.44 ± 0.093
NGGVGVDVELITSINVE [FAS2] | 2.93 ± 0.051
NGKLTSANERLFGNRPS [YML031W/NDC1] | 2.72 ± 0.11
NGLAIRRAAYGVVRYVM [RPS3] | 2.06 ± 0.057
NGNLEEEFAYVDPARRQ [MED6] | 3.62 ± 0.21
NGNTSSKTVVTLSEPVQ [FAS1] | 2.91 ± 0.072
NGRLNKCGVISPRFNVK [RPS22A] | 2.58 ± 0.29
NGSSDASSLRFGNSLSN [YDL088C/ASM4] | 2.77 ± 0.071
NGTISKTGKKNKVAKKN [SRP14] | 3.51 ± 0.16
NGVRALFHSCTRIQYVD [GRR1] | 2.08 ± 0.088
NGWEKYLHNVELGEKKN [ISW2] | 1.7 ± 0.087
NHNQFECKGCDNKIDIY [RPB2] | 3.06 ± 0.044
NHSLQHQNESSAASIPP [RPN4] | 2.94 ± 0.057
NIDSSAQFTFGKAATAK [YOR098C/NUP1] | 3.12 ± 0.099
NIEEMARVILYLKNVLF [SIN4] | 2.23 ± 0.075
NIFSEAVKNKYNVGKQL [PRP28] | 1.55 ± 0.085
NIKIDAKPALFERFINA [MCD1] | 1.76 ± 0.053
NIKTIAETLAEELINAA [RPS5] | 2.29 ± 0.067
NIKTSEWDLYPQGFSSV [REC8] | 2.91 ± 0.26
NILPFLWGPHGLNSDAE [ECM29] | 2.86 ± 0.21
NIRGNTIRQIILPDSLN [SMD1] | 2.87 ± 0.15
NKDMIKNLVKVLESRVN [CSN12] | 2.32 ± 0.23
NKINSRNSWNFALIDYF [BRN1] | 2.13 ± 0.2

Sequence | protein stability index
NKLSGILADEMGLGKTL [ISW2] | 3.1 ± 0.088
NKTDAQAPTTGFSFGSQ [YJL041W/NSP1] | 2.91 ± 0.064
NKVGSTGSLMGGNSTQN [YGR119C/NUP57] | 3.02 ± 0.076
NKVHETSSKSSSLSAII [YDL088C/ASM4] | 2.67 ± 0.044
NKVQIMIATNVAARGLD [PRP28] | 1.45 ± 0.061
NKVSNTVSPTQDKDAIR [SIR2] | 2.98 ± 0.052
NLDAAAAGTSQARTATL [RPC10] | 2.65 ± 0.17
NLDYLFELIELVTPKSF [NUT1] | 2.85 ± 0.057
NLFPLKPKMLPIPSKPT [SRP68] | 2.38 ± 0.11
NLKGRPYTGWVDSKTKE [FAS2] | 3.03 ± 0.062
NLLHSYMEKGTQLDDLQ [YML103C/NUP188] | 2.63 ± 0.056
NLLKDEGVTPGRIRTTR [SSN3] | 3.1 ± 0.26
NLPEEERKQIHEFKLIV [GRR1] | 2.13 ± 0.29
NLPEHIVPGTYIQERNP [RPS10A] | 2.64 ± 0.069
NLQPISTPENVPRLFDL [SMC4] | 2.89 ± 0.11
NLRLLNSIDSTSRIELE [ECM29] | 2.91 ± 0.094
NLRLLVEENRVRYTTSV [DLS1] | 2.33 ± 0.071
NLSAFKIVYIAPLKALV [BRR2] | 1.55 ± 0.054
NLSRYPKSGIDIFVYLT [MTR3] | 2.35 ± 0.049
NMLPQRQSSVGSLNATN [SNF2] | 2.8 ± 0.082
NMMDAISFVLGVRSNHL [SMC1] | 2.28 ± 0.063
NNHNMRNNSNNKTSNNN [SWI1] | 2.56 ± 0.088
NNIKNGTNNISQHGQGN [YDL088C/ASM4] | 2.93 ± 0.046
NNKKVVGTAIDSILNYA [ECM29] | 2.4 ± 0.21
NNNNNNNNSNNIMSASG [YGL172W/NUP49] | 2.73 ± 0.059

Sequence | protein stability index
NNPLVQKKNFLFKPLNK [ARP7] | 2.33 ± 0.23
NNRMGSYDCTGVNELAP [POP1] | 2.63 ± 0.099
NNRSVSMQTIAETIILS [SRB5] | 2.02 ± 0.052
NNRWAENNYKKRLLGTA [RPS23A] | 2.37 ± 0.27
NNSALSNVNSDIYFKLK [RPT3] | 3.12 ± 0.14
NNSNNNNIIRIQQLISQ [SNF11] | 2.25 ± 0.06
NNTEKNDVTNKNINIGK [SIR4] | 2.1 ± 0.055
NNTNNNNTNTGASGVDD [SWI1] | 2.75 ± 0.073
NNWFSLPGDMLAVCDEL [SIN4] | 2.33 ± 0.073
NPFEDDMDGVDFNQAFE [BRN1] | 3.31 ± 0.05
NPHQKDQLIISSSANKL [YML103C/NUP188] | 2.45 ± 0.15
NPIIENNVDNKYKSGGK [SSN2] | 2.92 ± 0.052
NPKYDTSNASMNTTLGS [YAR002W/NUP60] | 3.12 ± 0.045
NPLAKTMADAVRELGIL [SEC65] | 2.78 ± 0.058
NPMKKHKPNEGRTPNIS [SIR4] | 2.88 ± 0.068
NPPYSQCIVYPNCLFIL [SOH1] | 1.76 ± 0.038
NPVTLNEDSKAFHTAVL [NUT1] | 2.81 ± 0.057
NQDSVKTYALESINNVV [RPN2] | 3.23 ± 0.1
NQLEDFILELEHKTPEL [YIL149C/MLP2] | 2.74 ± 0.14
NQSFIQQKANLLSSSNF [COR1] | 2.17 ± 0.067
NQTNINSLAVRGKDCTV [SCL1] | 2.83 ± 0.14
NQVMMDRKIQGWLGALT [ARP7] | 2.84 ± 0.069
NRERFISKLFLRGDSVI [SMD2] | 2.91 ± 0.076
NRGNKKRHRSSYYDNDL [YML031W/NDC1] | 3.02 ± 0.13
NRKVLQALEKIGIVEIS [RPS19A] | 2.34 ± 0.1

Sequence | protein stability index
NRKVRAGRGFTLAEVKA [RPL13A] | 2.84 ± 0.054
NRQAAASVVPSASSLVI [RPL12A] | 1.73 ± 0.03
NRRGMLALSGTSASNTS [SNF5] | 3.02 ± 0.064
NRRKQSFVLNKNTIDFE [RPN4] | 2.86 ± 0.062
NRTKSTTIKNIDILNRT [SMC4] | 2.15 ± 0.046
NRTMDGKPVSLPLLYNF [FAS1] | 3.08 ± 0.093
NRTVLLKIFKIFCIDLE [SRB8] | 1.94 ± 0.094
NSADAAYAQVEIQPRAN [FAS2] | 2.82 ± 0.054
NSASNNGNLTSNQLISN [SWI1] | 1.96 ± 0.084
NSDIANLRTQVTQQKRS [SMC1] | 3.05 ± 0.074
NSESDSKSDSDSEERDP [ITC1] | 3.14 ± 0.14
NSKDHKKITLQLLDTSN [SIN4] | 3.07 ± 0.07
NSLFYLKWSACTSLMDI [IRR1] | 1.68 ± 0.073
NSLLSNFNDIPPSVTLQ [YDL088C/ASM4] | 2.63 ± 0.081
NSLLTIVWRFISENTFP [RPC34] | 1.82 ± 0.059
NSMDISMFSGLDSTGFD [MED2] | 2.83 ± 0.059
NSNSNQQSTDADEDDED [RPT1] | 2.32 ± 0.095
NSNSNSGSLFGSNNAQT [YGL172W/NUP49] | 2.6 ± 0.13
NSPTSFFDGSASSTPIP [YOR098C/NUP1] | 3.19 ± 0.07
NSSEIQSAIRPAGQATQ [RPL4A] | 2.63 ± 0.085
NSSSMEEVMRIALMGQD [ESC2] | 2.69 ± 0.068
NTAFGNSNPTSNVFGSN [YJL041W/NSP1] | 3.06 ± 0.13
NTEKDYKMVQEQLSKQR [SMC2] | 3.27 ± 0.065
NTENNDPDIPMTIDLEP [IRR1] | 3.07 ± 0.17

Same assay, conditions: pdr5∆

Sequence | protein stability index
NGDNLYGNDEEVLFYED [RPN4] | 3.22 ± 0.12
